Test results as given in the supplement of paper PMC10126150.
± gives the standard deviation of the averaged measurements.

System: ATP
Assay: switch fluorescence ratio, 500 uM ATP over buffer (Cy3 cluster intensity, sum of 5 cycles each) (fold (ratio)); higher = stronger signal-on switching upon ATP binding; sequences stand for … in TCGTCGGCAGCGTCAGATGTGTATAAGAGACAGTTTTTTTTTTTTTTTTTTTTTTTTT…TC
Conditions: aptamer strand: ATP DNA aptamer (quencher-CACCTGGGGGAGTATTGCGGAGGAAGG + anchor), 100 nM annealed; ATP concentration: 500 uM
Method in brief: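 After annealing to 100 nM quencher-labelled ATP aptamer, Cy3-labelled switching-strand clusters on a modified Illumina MiSeq flow-cell were imaged in selection buffer. A second image followed after 15 min with 500 uM ATP at 22 °C, and five such buffer/ATP cycles were done, each separated by NaOH stripping and re-annealing. The fluorescence ratio, averaged per switch-domain sequence, is summed target-cycle over summed buffer-cycle Cy3 intensity per cluster, with clusters outside 100-1000 RFU excluded.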
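Also: ATP exposure 15 min at 22 °C before imaging.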

Sequence | switch fluorescence ratio
AATAGTATCT | 1.01 ± 0.029
AATAGTGACG | 1.14 ± 0.28
AATAGTTTG | 1.01 ± 0.017
AATAGTTTTT | 0.986 ± 0.055
AATATAAATA | 1.019 ± 0.0072
AATATAGGGG | 0.996 ± 0.017
AATATATGGA | 1 ± 0.023
AATATATGGG | 0.973 ± 0.021
AATATCACGG | 1.05 ± 0.029
AATATCTGTG | 1.01 ± 0.016
AATATGATAA | 1.01 ± 0.053
AATATGATGT | 1.05 ± 0.04
AATATGGGGT | 1.01 ± 0.014
AATATGTATG | 0.996 ± 0.024
AATATGTGAG | 0.995 ± 0.028
AATATGTTGT | 0.98 ± 0.037
AATATTAGCC | 0.957 ± 0.02
AATATTATGG | 1 ± 0.016
AATATTGGGG | 0.981 ± 0.029
AATATTGGTG | 1.0416 ± 0.001
AATATTGTCG | 0.994 ± 0.034
AATATTGTCT | 0.96 ± 0.013

Sequence | switch fluorescence ratio
AATATTTGGT | 0.974 ± 0.019
AATCAAGGCG | 1.03 ± 0.1
AATCAATTGT | 0.978 ± 0.053
AATCAGAGTG | 1.01 ± 0.03
AATCAGCGTC | 0.986 ± 0.023
AATCAGGGGG | 1.01 ± 0.04
AATCAGTGGA | 0.974 ± 0.038
AATCATCGTG | 0.9646 ± 0.0043
AATCATGGAG | 0.9891 ± 0.004
AATCATGGT | 0.978 ± 0.019
AATCATTATT | 1.01 ± 0.017
AATCATTGTT | 1.02 ± 0.026
AATCCAGGGC | 1.05 ± 0.056
AATCCTGGAG | 1.02 ± 0.011
AATCGAGGGG | 0.991 ± 0.03
AATCGAGTTG | 0.985 ± 0.013
AATCGATTCC | 1.04 ± 0.034
AATCGCGGCT | 1.01 ± 0.029
AATCGCGTTT | 1.017 ± 0.0012
AATCGGGAGG | 0.963 ± 0.062
AATCGGGCAG | 1.04 ± 0.021
AATCGGGGCT | 0.992 ± 0.013

Sequence | switch fluorescence ratio
AATCGGGGTT | 0.948 ± 0.015
AATCGGGTCT | 0.999 ± 0.015
AATCGTCTTT | 0.961 ± 0.024
AATCGTGGTT | 1 ± 0.034
AATCGTTGGG | 0.955 ± 0.038
AATCTCGTGG | 0.995 ± 0.051
AATCTGATGT | 1.18 ± 0.28
AATCTGCTGC | 1.09 ± 0.056
AATCTGCTTG | 1.05 ± 0.024
AATCTGGGCG | 0.985 ± 0.016
AATCTGTCCT | 1.04 ± 0.027
AATCTGTTCG | 0.9708 ± 0.004
AATGAAAAGT | 0.992 ± 0.017
AATGAAATAG | 0.998 ± 0.0061
AATGACGAGC | 1.04 ± 0.017
AATGACTTAA | 1.01 ± 0.048
AATGAGAGTG | 1 ± 0.035
AATGAGGGTA | 1.04 ± 0.019
AATGAGGGTC | 0.989 ± 0.11
AATGAGTCGG | 0.998 ± 0.033
AATGAGTGTT | 1.02 ± 0.042
AATGATCGGG | 1.004 ± 0.0094

Sequence | switch fluorescence ratio
AATGATGCTT | 1 ± 0.051
AATGCAACAG | 1.15 ± 0.056
AATGCAATTG | 1.03 ± 0.016
AATGCGCATC | 1.05 ± 0.023
AATGCTCGCT | 1.022 ± 0.0061
AATGCTTAGA | 0.985 ± 0.03
AATGGATACT | 1.03 ± 0.012
AATGGATGTG | 0.991 ± 0.013
AATGGCAGTG | 1 ± 0.048
AATGGCTGGG | 0.999 ± 0.043
AATGGGATTG | 0.972 ± 0.0096
AATGGGCAGC | 1.02 ± 0.013
AATGGGGCTT | 0.995 ± 0.03
AATGGGGGGA | 0.998 ± 0.057
AATGGGGTCT | 1.01 ± 0.047
AATGGGGTTA | 0.997 ± 0.023
AATGGGTATC | 0.9923 ± 0.0088
AATGGGTGGT | 1 ± 0.017
AATGGGTTTG | 1.01 ± 0.03
